In one series the test system is GS5. In words: GS5 sphere formation (TIC self-renewal). Format: cell-based.
Another series concerns CD133+ cell population. Put plainly: CD133+ cell population. Format: cell-based.
A further series relates to GS5-derived tumors. Put plainly: Survival of rats bearing GS5-derived brain tumors after a single infusion. Format: in vivo. Conditions: single infusion into rat brains bearing GS5-derived tumors.
The test system of series [1] is GS5, a well-characterized TIC line. Put plainly: GS5 proliferation. Format: cell-based.
Series [2] deals with GBM cells from GBM1 (08-387), GBM2 (4121), GBM3 (08-322), GBM4 (3691) xenografts. In words: Neurosphere formation assay of aptamer-high vs aptamer-low GBM cells. Type of series: cell-based, human. As to conditions: four GBMs tested. Here is the method: After overnight recovery of GBM cells from tissue dissociation, each Cy5-labeled aptamer was incubated with each specimen for 30 min. After washing thrice, labeled GBM cells were subjected to cell sorting. For the sphere formation assay, 10 cells of either aptamer^high and aptamer^low GBM cells sorted by FACS were directly plated into each well of a six well plate containing 200 μL of TIC culturing medium similar to our prior descriptions. After 10 to 14 days, the number of tumorspheres in each well was counted and plotted. For the cell proliferation assay, aptamer^high and aptamer^low GBM cells were sorted into each 15 mL tube, and equal numbers of cells were plated into 96 wells. Differences in cell growth were measured using Cell-Titer Glow (Promega™) according to the manufacturer's instructions and prior reports. Hjelmeland et al., PLoS biology, 8:e1000319 (2010); Li et al., Cancer cell, 15:501-13 (2009).

For series [3], the system named is GBM1 (08-387) cells injected intracranially. Put plainly: In vivo tumorigenic potential of aptamer-high vs aptamer-low GBM cells. More on the design: species or system mice. As to conditions: for tumor incidence, aptamer-high cells / tumor incidence, aptamer-low cells: 300 cells implanted; for survival of mice injected with aptamer-high cells: 3000 or 300 cells intracranially, vs aptamer-low cells. Here is the method: To determine tumorigenic potential, 300 or 3000 viable aptamer^high or aptamer^low GBM cells were intracranially injected into athymic/nude immunocompromised mice as we have previously described. Animals were maintained until the development of neurological signs including lethargy, seizure, ataxia, or paralysis or for a maximum of 60 days, when they were sacrificed. All animal procedures were performed in accordance with a Cleveland Clinic IACUC approved protocol.

In series [4] the test system is ReNCell CX immortalized human neural progenitors or primary human fetal neural progenitors. In words: Flow cytometry aptamer binding to non-neoplastic neural progenitors. Here is the method: (§1) Each FITC-labeled aptamer candidate was incubated with TICs or non-TICs in binding buffer on ice for 30 min. The cells were washed three times with binding buffer, and the pellets with the bound sequences were resuspended in 200 μL binding buffer. The fluorescence intensity was determined with a LSR II (BD Immunocytometry Systems) by counting 10,000 events. The FITC-labeled unselected single strand DNA library was used as a negative control. To determine the specificity of the selected aptamers, aptamer binding to additional GBM cells (08-322, 4121, U87MG) or neural progenitors (RenCell c-myc immortalized human neural progenitors, Millipore; human fetal neural progenitors, Lonza) was determined. For determination of aptamer binding to differentiated TICs, TICs were plated on Geltrex-coated plates in the presence of 10% serum and harvested after five days for FACS analysis.

For another series, the system named is TICs. Put plainly: Flow cytometry to monitor aptamer binding to TICs. Set-up: species or system human. Conditions: GBM1, GBM2, GBM3. The method, then: as §1
To further evaluate the specificity of TIC-enriched aptamers, the fold change in fluorescence was calculated. Fluorescence shift was calculated using the equation (Faptamer−Fcell)/(Flibrary−Fcell), where Faptamer, Flibrary and Fcell refers to the fluorescence value of the aptamer, library, and cell itself. Using this calculation, specificity of aptamers A2-A6 for TICs in comparison to non-TICs was shown for all three GBMs tested (FIG. 2A-C).
For orientation: A flow cytometer gives signals particle by particle.

Excerpt for CD133+ cell population: (§2) We further evaluated whether this drug delivery system can be used to treat TIC-derived tumors. […] We successfully encapsulated DI into our brain-penetration nanoparticles, which were administrated via a single infusion into rat brains bearing GS5-derived tumors.
Excerpt for GS5-derived tumors: as §2

The term IC50 denotes the concentration that gives 50% inhibition. On to `CCN1/C(=C/C=C/C=C/c2sc3ccccc3[n+]2CC)Sc2ccccc21` [DI, dithiazanine iodide], for which, in the series on GS5, the “inhibition of GS5 sphere formation” value turned out to be 94%. For the same molecule, the “decrease of the CD133+ cell population” value with CD133+ cell population is given as 57%. In the series with GS5-derived tumors, the median survival stood at 177 days. The IC50 in series [1] came out at 79 nM.

B1: CCGTAGCTACGACGGAGGAAACTATGTTA (nucleic acid)
DNA: ATCCACGAGTGACGCAGCATGTTTAGGAAACCGTAGCTACGACGGAGGAAACTATGTTAAACATCCCCATGGACACGGTGGCTTAGT
modifications: DNA, backbone and methylation of C not given here
notes: TIC-specific DNA aptamer
For the molecule B1, the “neurosphere formation capacity of aptamer-enriched cells” value (shortened to “neurosphere formation capacity”) in series [2] is “significantly segregated cells with neurosphere formation capacity in all four GBMs tested”.

B2: AAAGCTCCTTGGAATAGTCTAATACCGGA (nucleic acid)
DNA: ATCCACGAGTGACGCAGCACGAGCAACACAAAAGCTCCTTGGAATAGTCTAATACCGGAGCGAGAAAGCTGGACACGGTGGCTTAGT
modifications: listed as DNA, chemistry not given here
notes: TIC-specific DNA aptamer
Take B2: in series [3], the “tumor incidence, aptamer-high cells” value is recorded as “All mice”; the “tumor incidence, aptamer-low cells” value is 3 of 4; the “survival of mice injected with aptamer-high cells” value is “significantly reduced”. Moreover, the “neurosphere formation capacity” value in series [2] is recorded as “significantly segregated cells with neurosphere formation capacity in all four GBMs tested”.

B3: TGTGTATAAAGGGGCGGTGAAAAGCGAAT (nucleic acid)
DNA: ATCCACGAGTGACGCAGCACAGTGATCAGTTGTGTATAAAGGGGCGGTGAAAAGCGAATTCCAGTCGACTGGACACGGTGGCTTAGT
modifications: listed as DNA, chemistry not given here
notes: TIC-specific DNA aptamer
Regarding B3, in series [3], the “tumor incidence, aptamer-high cells” value is given as “All mice”; the “tumor incidence, aptamer-low cells” value is given as 2 of 4; the “survival of mice injected with aptamer-high cells” value is “significantly reduced”. The “binding to nonneoplastic neural progenitors” value in series [4] was “bound both sets of non-neoplastic brain cells”. The “neurosphere formation capacity” value in series [2] is on record as “greater neurosphere formation capacity in three of four GBMs tested”.

B4: AGAACTGGCCTTACTACGAAAAGTCCTTG (nucleic acid)
DNA: ATCCACGAGTGACGCAGCACCGAGAGGAGAGAACTGGCCTTACTACGAAAAGTCCTTGGTTGCCAGGGGTGGACACGGTGGCTTAGT
modifications: listed as DNA, chemistry not given here
notes: TIC-specific DNA aptamer
Regarding B4, in series [2], the “neurosphere formation capacity” value is on record as “significantly segregated cells with neurosphere formation capacity in all four GBMs tested”.

B5: GACGAGCTAAGAACCTTTAGGAGTGGAAA (nucleic acid)
DNA: ATCCACGAGTGACGCAGCACAGAGTGGAAGACGAGCTAAGAACCTTTAGGAGTGGAAAAGATAGCTCATGGACACGGTGGCTTAGT
modifications: DNA, backbone and methylation of C not given here
notes: TIC-specific DNA aptamer
In the case of B5, the “neurosphere formation capacity” value in series [2] is recorded as “greater neurosphere formation capacity in three of four GBMs tested”. The “fluorescence shift (Faptamer−Fcell)/(Flibrary−Fcell): specificity for TICs in comparison to non-TICs” value in the series on TICs was “greater binding to TICs in GBM1 and GBM2, but not GBM3”.

Source of the values: US9731032B2, “Aptamers for tumor initiating cells” (THE CLEVELAND CLINIC FOUNDATION, priority 2013, dated 2017).
